The record followed here is patent US20140087991A1, “PEPTIDE PRODRUGS” (The Johns Hopkins University, priority 2006, published 2014).

One assay deals with T1, FAP (Homo sapiens, UniProt Q12884).
T1 construct: the extracellular domain of FAP was cloned with a His-6 tag; made in house
T1 sequence (Q12884 26-760 limits assumed): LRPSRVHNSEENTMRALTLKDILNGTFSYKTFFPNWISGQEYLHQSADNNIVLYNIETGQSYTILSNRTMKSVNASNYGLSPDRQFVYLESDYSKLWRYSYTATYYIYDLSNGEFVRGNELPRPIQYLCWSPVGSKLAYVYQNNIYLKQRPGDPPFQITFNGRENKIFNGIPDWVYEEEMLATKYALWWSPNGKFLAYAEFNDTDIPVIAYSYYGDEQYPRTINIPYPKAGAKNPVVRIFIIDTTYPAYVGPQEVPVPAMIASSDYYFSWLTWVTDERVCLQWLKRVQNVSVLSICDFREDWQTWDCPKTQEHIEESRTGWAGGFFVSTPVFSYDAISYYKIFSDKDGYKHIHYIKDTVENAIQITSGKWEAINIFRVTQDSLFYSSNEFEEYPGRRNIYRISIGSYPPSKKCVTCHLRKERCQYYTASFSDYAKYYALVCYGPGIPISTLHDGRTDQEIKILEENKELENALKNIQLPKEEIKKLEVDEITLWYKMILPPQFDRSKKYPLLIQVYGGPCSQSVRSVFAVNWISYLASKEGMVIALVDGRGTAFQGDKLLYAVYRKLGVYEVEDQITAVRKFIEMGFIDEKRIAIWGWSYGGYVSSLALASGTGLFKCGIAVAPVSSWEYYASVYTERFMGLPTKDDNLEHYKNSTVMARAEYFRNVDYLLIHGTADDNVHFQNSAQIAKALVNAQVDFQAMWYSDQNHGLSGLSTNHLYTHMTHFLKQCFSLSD
The assay can be described thus: Digestion of human collagen I and recombinant gelatins with FAP (SDS-PAGE, MALDI). The class given is biochemical. Particulars: SDS PAGE and MALDI spectra. As for the experimental part: Human collagen I (Becton Dickinson, Franklin Lakes, N.J.) and recombinant human gelatins of 100 KDa and 8.5 KDa (Fibrogen, San Francisco, Calif.) were dissolved in reaction buffer to a final concentration of 100-300 μg/ml. 0.5-1 μg of FAP was added per 100 μgs of protein substrate. Digestion was done for 4-6 hrs at 37° C. As a positive control trypsin digestion was used. As a negative control, protein solutions were incubated either with BSA or buffer only. Peptide fragments of a size <30 KDa were purified using 30 KDa Microcon spin filter (Millipore, Billerica, Mass.).
In an effort to elucidate the substrate specificity of FAP, we examined FAP digests of unlabeled human Collagen I using matrix assisted laser desorption ionization (MALDI) time of flight mass spectrometry. Digestion reactions were performed at a substrate to protease mass ratio of 200:1 using recombinant FAP or modified trypsin as a control. Two negative controls of Collagen alone and FAP alone were also included to identify any peptides due to autolysis/degradation of these proteins. […]
As Collagen I and Gelatin are currently the only known protein substrates for FAP, we developed an alternative method to identify FAP-selective cleavage sites within these proteins. […] The masses of fragments <3 KDa were purified for MALDI spectra and again analyzed using the FindPept tool. […]

In assay [1] the test system is human MDA-MB231 breast cancer xenografts. The experiment in a line: Antitumor effect in breast cancer xenografts. It counts as in vivo, nude mice. Particulars: FIG. 6 legend, values not given.
In assay [2] the test system is FAP-transfected MDA-MB-231 cells. The assay can be described thus: Hydrolysis of quenched peptides by FAP-transfected MDA-MB-231 cells. The class given is cell-based, human. To be noted: 50 μM in serum containing media. The text has this: Human breast cancer cell lines MCF-7 and MDA-MB-231 were selected for transfection because the cells were negative for FAP when grown under standard culture conditions (25). Details of transfection methodology are described in methods section of Specific Aim 2 below. Briefly, a 2.2 kb PCR fragment was purified by gel electrophoresis, digested with NheI and cloned into bicistronic pIRES vector (kindly provided by Dr. Ben Park, The Johns Hopkins University) previously digested with Nhe 1. Final construct was designated as pFAPIRES. Sequencing primers were designed for the entire length of the gene and were confirmed to be correct. The cells were transfected using Fugene 6 (Roche). Control transfections were done on the same lines with the empty IRES vector. Cells were characterized for production of FAP by Flow Cytometry (FIG. 17A-FIG. 17D).
(§1) Subsequently, one of the MDA-MB-231 clones was used to evaluate FAP activity in vitro. In this assay cells were grown in serum containing media to 70% confluency followed by addition of fluorescence quenched peptides into the media at concentration of 50 μM. As a control cell lines transfected with the carboxypeptidase PSMA using the same vector system were used. Cells were incubated with three different FAP substrates, FIG. 18.

For assay [3], the system named is control cells transfected with PSMA. The experiment in a line: Hydrolysis of quenched peptides by control cells transfected with PSMA. To be noted: 50 μM. The class given is cell-based, human. The procedure:
as §1

Another assay concerns the target T2, His-tagged FAP (Homo sapiens, UniProt Q12884).
T2 construct: the extracellular domain of FAP was cloned with a His-6 tag; made in house
T2 sequence (Q12884 26-760 limits assumed): T1 sequence (Q12884 26-760 limits assumed)
The experiment in a line: FAP hydrolysis of MCA/DNP fluorescence quenched peptide substrates. The class given is biochemical. The procedure:
Quenched substrates were prepared by using the MCA/DNP fluorophore/quencher pair. Synthesis of peptides was done using standard Fmoc solid phase coupling on NovaTag™ Dnp resin with a substitution level of 0.4 mmole/g (Novabiochem, San Diego, Calif.). N-terminal capping was done twice overnight with N-(7-methoxycoumarin-4-acetyloxy)succinimide (MCA-Osu) and 1-Hydroxybenzotriazole (HOBt) in N-Methyl 2 Pyrrolidone (NMP). Peptides were cleaved with 95% TFA, 2.5% TIS and 2.5% water. The purity and mass of each quenched peptide was confirmed by Reversed Phase-HPLC and MALDI-TOF analysis.
Quenched peptide substrates were weighed and dissolved in DMSO to obtain a final concentration of 50 mM and were stored at −20° C. until later use. Dilutions (e.g. 200 μM, 100 μM, 50 μM, 25 μM) were prepared in duplicates in the reaction buffer. His-tagged FAP was added to a final concentration of 5 nM. Release of free MCA was measured at excitation 355 nm and emission 460 nm in a 96-well fluorescence plate reader. Controls consisted of substrates in buffer±BSA.
On the basis of the 8.5 kDa gelatin cleavage map a series of fluorescence quenched substrates were prepared (colored sequences in Table 3) by using the Methoxycoumarin (MCA)/Dinitrophenyl (DNP) FRET combination (52). […]

Ends that are not written are not given here. * marks the point of attachment. Mu = morpholinocarbonyl, O=C(N1CCOCC1)*

Regarding “human Collagen I: unlabeled human collagen I (Becton Dickinson)”, the “digestion by FAP” value with FAP is given as “cleaved by FAP at certain specific sites”.

Consider “FAP activated prodrug: FAP selective peptide Mu-SGEAGPA (Mu = morpholinocarbonyl) coupled to 12 ADT (12-aminododecanoyl thapsigargin) (not fully specified (C-terminus); printed as Mu-SGEAGPA; also: coupled to 12ADT (12-aminododecanoyl thapsigargin))”, for which the antitumor effect result in assay [1] is “antitumor effect”.

Consider “VGPAGK (also: MCA/DNP quench labels) [tested as MCA/DNP fluorescence quenched substrate]”, for which the “hydrolysis by FAP-positive cells” value in assay [2] is reported as “appreciably hydrolyzed”. In addition, in assay [3], the “hydrolysis by control media” value is listed as “relatively stable to hydrolysis”. Further, the Km in the assay with His-tagged FAP (FAP hydrolysis of quenched substrate, Michaelis Menten) was roughly 50 µM. For the same substance, the “hydrolysis by FAP” value with His-tagged FAP (substrate at 25 μM) is listed as “rapidly hydrolyzed”.
